Experimental data published in patent US20230227512A1.

Legend:
[1] = target: BG505 SOSIP.664 trimer+sCD4 complex (HIV-1 strain BG505; human) (UniProt P01730); test: SPR read-out on captured 3074 IgG of trimer incubated with sCD4
[2] = target: BG505.SOSIP.664.201C-433C HIV-1 Env ectodomain trimer (HIV-1 strain BG505); test: SPR, single-cycle kinetics

3074 antibody
t1/2 of CD4-induced appearance of binding [1]: 4.2 h

soluble CD4 (sCD4) (from UniProt P01730 26-208) (receptor)
fold faster off-rate relative to parent SOSIP.664 [2]: 10 fold | fold reduction in KD (affinity) relative to SOSIP.664 [2]: 10 fold
